Reference: publication PMC11139864

Columns and labels:
[1] = target: Thogoto virus (THOV) polymerase, full-length heterotrimer of PB2, PB1 and PA (Thogoto virus (isolate SiAr 126)) (UniProt Q9YNA4); experiment: cryo-EM structure; replicative elongation sample: 3.2 uM THOVPol, 30 °C for 6 h with 1.6 uM 3' vRNA, 1.6 uM 5' vRNA, 160 uM primer pppApG, 1.6 mM each ATP and CTP; 25 mM Tris-HCl pH 7.5, 300 mM NaCl, 2 mM MnCl2, 8 mM TCEP, 1% glycerol; asymmetric dimer of two heterotrimers (THOVPol-ELR with THOVPol-RER) beside a monomeric form
[2] = target: Thogoto virus (THOV) polymerase, full-length heterotrimer of PB2, PB1 and PA (Thogoto virus (isolate SiAr 126)) (UniProt Q9YNA4)
[3] = target: Thogoto virus (THOV) polymerase, full-length heterotrimer of PB2, PB1 and PA (Thogoto virus (isolate SiAr 126)) (UniProt Q9YNA4); experiment: cryo-EM structure; transcriptional elongation sample: 3.2 uM THOVPol, 30 °C for 6 h with 2.5 uM 3' vRNA, 2.5 uM 5' vRNA, 160 uM capped primer m7GpppAmG, 1.6 mM each ATP and CTP; 25 mM Tris-HCl pH 7.5, 300 mM NaCl, 2 mM MnCl2, 8 mM TCEP, 1% glycerol; asymmetric dimer of two heterotrimers (THOVPol-EL with THOVPol-RE) beside monomeric forms

“Thogoto virus (THOV) polymerase, full-length heterotrimer of PB2, PB1 and PA (from UniProt Q9YNA4 1-769; Q9YNA4 1-769; Q9YNA4 1-769) (complex)” gave a stoichiometry N [1] of 2, a reduction of mRNA and cRNA levels in the mini-replicon assay (RT-qPCR) with PB2-HA D547A/F549A (dimer interface 1) [2] of over 100 fold and a reduction of mRNA and cRNA levels in the mini-replicon assay (RT-qPCR) with PB2-HA F134A/W138A (dimer interface 2) [2] of over 100 fold. For the same substance, the reduction of mRNA and cRNA levels in the mini-replicon assay (RT-qPCR) with PB2-HA Q295A/D547A/I653A (dimer interfaces 1 and 3) [2] was over 100 fold and the stoichiometry N [3] was 2.
